Read-outs that look alike come from different tables or passages of the source.
T1: human FSTL1 (construct not stated) (human, UniProt Q12841 21-308)
T1 construct: also called human FSTL1 antigen; FSTL1 (R&D Systems, Inc. Cat#1694-FN-050)
T1 sequence: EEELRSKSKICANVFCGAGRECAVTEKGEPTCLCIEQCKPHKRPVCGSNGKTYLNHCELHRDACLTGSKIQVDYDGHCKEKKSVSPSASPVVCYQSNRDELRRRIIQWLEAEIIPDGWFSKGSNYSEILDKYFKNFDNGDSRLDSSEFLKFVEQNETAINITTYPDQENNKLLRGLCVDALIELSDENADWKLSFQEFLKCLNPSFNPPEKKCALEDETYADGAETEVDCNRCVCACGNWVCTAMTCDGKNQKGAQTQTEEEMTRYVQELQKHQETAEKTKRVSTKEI

T2: His-tagged mouse FSTL1 (amino acid sequence of mouse FSTL1 used in Examples, SEQ ID NO: 72) (mouse, UniProt Q62356 19-306)
T2 sequence: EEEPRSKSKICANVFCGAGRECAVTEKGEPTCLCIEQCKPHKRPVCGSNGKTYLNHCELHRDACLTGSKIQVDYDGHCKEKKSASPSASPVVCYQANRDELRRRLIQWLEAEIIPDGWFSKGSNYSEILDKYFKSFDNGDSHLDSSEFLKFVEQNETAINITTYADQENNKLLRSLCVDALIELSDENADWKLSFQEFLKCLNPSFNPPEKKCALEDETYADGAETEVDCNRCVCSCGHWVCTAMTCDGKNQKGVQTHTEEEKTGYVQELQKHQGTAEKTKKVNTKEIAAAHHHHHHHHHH


Legend:
[1] = target: T1, human FSTL1 (construct not stated); test: BLI (BLItz), biotinylated antigen 5 µg/ml on streptavidin sensor, antibody 0 to 40 ug/ml
Description: The binding activity of the obtained purified antibody against FSTL1 was measured by use of the BLI method (BLItz, Pall Corp., 45-5000). The antigen was biotinylated using EZ-Link NHS-PEG4-Biotin (Thermo Fisher Scientific Inc., 21329). Streptavidin Tray (Pall Corp., 18-5019) was used as a sensor chip for the BLI method. The sensor chip was hydrated with PBS (Wako Pure Chemical Industries, Ltd., 166-23555) for 10 minutes or longer. 5 μg/ml of the biotinylated antigen was immobilized onto the hydrated sensor chip for 300 seconds. The antibody was adjusted to 40, 20, 10, 5, 2.5, or 0 ug/ml and reacted therewith for 120 seconds, and dissociation was measured for 300 seconds. When the antibody concentration of 0 ug/ml was used as a reference, the KD value was calculated.

[2] = target: T2, His-tagged mouse FSTL1 (amino acid …); test: ELISA, mouse FSTL1 coated (FIG. 3B)
[3] = target: T1, human FSTL1 (construct not stated); test: SPR (Biacore T-200), captured antibody, human FSTL1 10 µg/ml
Description: (§1) The mouse chimeric antibodies were immobilized onto Sensor Chip CM5 (GE Healthcare Japan Corp., BR-1005-30) using Mouse Antibody Capture Kit (GE Healthcare Japan Corp., BR-1008-38), and their affinity for human FSTL1 was calculated using Biacore T-200 (GE Healthcare Japan Corp.).

[4] = target: T1, human FSTL1 (construct not stated); test: as above; remark: listed apart in the source
Description: as §1
(§2) First, the exhaustive activity comparison of the obtained antibodies was conducted with the human FSTL1 concentration fixed to 10 μg/ml (Table 33-1, FIG. 28).

[5] = target: T1, human FSTL1 (construct not stated); test: as above; remark: listed apart in the source
Description: as §1, §2

[6] = target: T1, human FSTL1 (construct not stated); test: as above; remark: listed apart in the source
Description: as §1, §2

[7] = target: T1, human FSTL1 (construct not stated); test: SPR (Biacore T-200), antibody on Human Antibody Capture Kit, human FSTL1 0 to 20 µg/ml
Description: (§3) Nine IgG1-type humanized antibodies of #6-55 were immobilized onto Sensor Chip CM5 (GE Healthcare Japan Corp., BR-1005-30) using Human Antibody Capture Kit (GE Healthcare Japan Corp., BR-1008-38), and their affinity for human FSTL1 was calculated using Biacore T-200 (GE Healthcare Japan Corp.). […] Among the 9 IgG1-type humanized antibodies of #6-55, a clone composed of a combination “H(2)-L(1)” having a […] KD value was selected as a lead antibody.

[8] = target: T1, human FSTL1 (construct not stated); test: as above; remark: listed apart in the source
Description: as §3

[9] = target: T1, human FSTL1 (construct not stated); test: as above; remark: listed apart in the source
Description: as §3

[10] = target: T1, human FSTL1 (construct not stated); test: as above; remark: listed apart in the source
Description: as §3

[11] = target: T2, His-tagged mouse FSTL1 (amino acid …); test: ELISA, mouse FSTL1 coated (FIG. 1B)

Kd [7]	Kd [8]	Kd [9]	Kd [10]	Binder	other results
–	–	–	–	optimized humanized antibody (humanized #6-55 H(2)-L(1), human IgG4 H chain constant region, λ L chain constant region) (antibody, Expressed in ExpiCHO) heavy: not shown light: SYELTQPPSVSVSPGQTARITCSGGGNNYGWYQQKPGQAPVTVIYYNDNRPSGIPERFSGSNSGSTTTLTISGVQAEDEADYYCGSWDSNTDSGIFGGGTKLTVLGQPKAAPSVTLFPPSSEELQANKATLVCLISDFYPGAVTVAWKADSSPVKAGVETTTPSKQSNNKYAASSYLSLTPEQWKSHRSYSCQVTHEGSTVEKTVAPTECS	Kd [1]: 10.9 nM
–	–	–	–	anti-FSTL1 antibody clone #8-4 (chicken-mouse chimeric antibody) (antibody, mouse IgG1, kappa, V domains shown) VH: AVTLDESGGGLQTPGGGLSLVCKGSGFTLSSFNMFWVRQAPGKGLEWVAGVGKDGGTAYGAAVDGRATISRDSGQSTVRLQLNNLRAEDTGTYFCAKAAGGCSYSWCGAYVGDLDAWGHGTEVIVSS VL: ASSQPSSVSANPGETVKITCSGGSGYYYGWYQQKSPGSAPVTVIYNNDNKPSDIPSRFSGSKSGSTGTLTITGVQVEDEAVYFCGGYDNSGTGIFGAGTTLTVLG	binding result [2]: no binding (tested: antibody diluted from 100 ng/ml); Binding amount (RU) [3]: 11.6 RU; Dissociation amount (RU) [3]: 6.2 RU; Binding amount (RU) [4]: 11.6 RU; Dissociation amount (RU) [4]: 6.2 RU; Binding amount (RU) [5]: 11.6 RU; Dissociation amount (RU) [5]: 6.2 RU; Binding amount (RU) [6]: 11.6 RU; Dissociation amount (RU) [6]: 6.2 RU
–	–	–	–	anti-FSTL1 antibody clone #10 (chicken-mouse chimeric antibody) (antibody, mouse IgG1, kappa, V domains shown) VH: AVTLDESGGGLQTPGGALSLVCKASGFFFFRIYDMGWVRQAPGKGLEWVAGIDDYGRYTGYGSAVKGRATISRDNGQSTVRLQLNNLRAEDTGTYYCARGAGTGCNSAGCGAYAGSIDAWGHGTEVIVSS VL: ASTQPSSVSANPGETVKLTCSGGGSRYGWYQQKSPGSAPVTVIYYNDKRPSDIPSRFSGSKSGSTATLTITGVQAEDEAVYFCGGYDGSRDAGIFGAGTTLTVLG	binding result [2]: binds; Binding amount (RU) [3]: 11.7 RU; Dissociation amount (RU) [3]: 6 RU; Binding amount (RU) [4]: 11.7 RU; Dissociation amount (RU) [4]: 6 RU; Binding amount (RU) [5]: 11.7 RU; Dissociation amount (RU) [5]: 6 RU; Binding amount (RU) [6]: 11.7 RU; Dissociation amount (RU) [6]: 6 RU
35.2 nM	35.2 nM	35.2 nM	35.2 nM	humanized #6-55 antibody H(1)-L(1) (IgG1 type) (antibody, V domains shown, Human IgG1 constant region; expressed in HEK293 with a chicken antibody leader; also called h#6-55 H(1)-L(1)) VH: not shown VL: SYELTQPPSVSVSPGQTARITCSGGGNNYGWYQQKPGQAPVTVIYYNDNRPSGIPERFSGSNSGSTTTLTISGVQAEDEADYYCGSWDSNTDSGIFGGGTKLTVLG	–
25 nM	25 nM	25 nM	25 nM	humanized #6-55 antibody H(1)-L(2) (IgG1 type) (antibody, V domains shown, Human IgG1 constant region; expressed in HEK293; also called h#6-55 H(1)-L(2)) VH: not shown VL: SYELTQPPSVSVSPGQTARITCSGGGNNYGWYQQKPGQAPVTVIYYNDNRPSGIPERFSGSTSGSTTTLTISGVQAEDEADYYCGSWDSNTDSGIFGGGTKLTVLG	–
24.9 nM	24.9 nM	24.9 nM	24.9 nM	humanized #6-55 antibody H(3)-L(3) (IgG1 type) (antibody, V domains shown, Human IgG1 constant region; expressed in HEK293; also called h#6-55 H(3)-L(3)) VH: EVQLLESGGGLVQPGGSLRLSCAASGFTFSSVTMQWVRQAPGKGLEFVASVCSGSSTYYAPAVKGRVTISRDNSKNTVYLQMNSLRAEDTAVYYCAKIAGRARWSCTSAAYNIDAWGQGTLVTVSS VL: SYELTQPPSVSVSPGQTARITCSGGGNNYGWYQQKPGQAPVTVIYYNDNRPSGIPERFSGSNSGNTATLTISGVQAEDEADYYCGSWDSNTDSGIFGGGTKLTVLG	–
26.8 nM	26.8 nM	26.8 nM	26.8 nM	humanized #6-55 antibody H(1)-L(3) (IgG1 type) (antibody, V domains shown, Human IgG1 constant region; expressed in HEK293; also called h#6-55 H(1)-L(3)) VH: not shown VL: SYELTQPPSVSVSPGQTARITCSGGGNNYGWYQQKPGQAPVTVIYYNDNRPSGIPERFSGSNSGNTATLTISGVQAEDEADYYCGSWDSNTDSGIFGGGTKLTVLG	–
45 nM	45 nM	45 nM	45 nM	humanized #6-55 antibody H(2)-L(3) (IgG1 type) (antibody, V domains shown, Human IgG1 constant region; expressed in HEK293; also called h#6-55 H(2)-L(3)) VH: EVQLLESGGGLVQPGGSLRLSCAASGFTFSSVTMQWVRQAPGKGLEFVSSVCSGSSTYYAPAVKGRFTISRDNSKNTVYLQMNSLRAEDTAVYYCAKIAGRARWSCTSAAYNIDAWGQGTLVTVSS VL: SYELTQPPSVSVSPGQTARITCSGGGNNYGWYQQKPGQAPVTVIYYNDNRPSGIPERFSGSNSGNTATLTISGVQAEDEADYYCGSWDSNTDSGIFGGGTKLTVLG	–
11.3 nM	11.3 nM	11.3 nM	11.3 nM	humanized #6-55 antibody H(2)-L(2) (IgG1 type) (antibody, V domains shown, Human IgG1 constant region; expressed in HEK293; also called h#6-55 H(2)-L(2)) VH: EVQLLESGGGLVQPGGSLRLSCAASGFTFSSVTMQWVRQAPGKGLEFVSSVCSGSSTYYAPAVKGRFTISRDNSKNTVYLQMNSLRAEDTAVYYCAKIAGRARWSCTSAAYNIDAWGQGTLVTVSS VL: SYELTQPPSVSVSPGQTARITCSGGGNNYGWYQQKPGQAPVTVIYYNDNRPSGIPERFSGSTSGSTTTLTISGVQAEDEADYYCGSWDSNTDSGIFGGGTKLTVLG	–
–	–	–	–	anti-FSTL1 antibody clone #7-34 (chicken-mouse chimeric antibody) (antibody, mouse IgG1, kappa, V domains shown) VH: AVTLDESGGGLQTPGGGLSLVCKASGFTFSSVTMQWVRQAPGKGLEWVASICSGSSTYYGPAVKGRATISRDNGQNTVRLQLNNLRAEDTATYYCAKIVGRGRWSCTSAAYNIDAWGHGTEVIVSS VL: ASTQPSSVSANPGETVKITCSGGGNNYGWYQQKSPGSAPVTVIYYNNNRPSNIPSRFSGSTSGSTSTLTITGVQAEDEAVYYCGSYEGSTDSGIFGAGTTLTVLG	binding result [11]: binds; Binding amount (RU) [3]: 14.2 RU; Dissociation amount (RU) [3]: 2.5 RU; Binding amount (RU) [4]: 14.2 RU; Dissociation amount (RU) [4]: 2.5 RU; Binding amount (RU) [5]: 14.2 RU; Dissociation amount (RU) [5]: 2.5 RU; Binding amount (RU) [6]: 14.2 RU; Dissociation amount (RU) [6]: 2.5 RU
60.5 nM	60.5 nM	60.5 nM	60.5 nM	humanized #6-55 antibody H(2)-L(1) (IgG1 type) (antibody, Human IgG1 constant region; expressed in HEK293; lead antibody; also called h#6-55 H(2)-L(1); humanized #6-55 H chain (2)+L chain (1)) heavy: not shown light: SYELTQPPSVSVSPGQTARITCSGGGNNYGWYQQKPGQAPVTVIYYNDNRPSGIPERFSGSNSGSTTTLTISGVQAEDEADYYCGSWDSNTDSGIFGGGTKLTVLGTVAAPSVFIFPPSDEQLKSGTASVVCLLNNFYPREAKVQWKVDNALQSGNSQESVTEQDSKDSTYSLSSTLTLSKADYEKHKVYACEVTHQGLSSPVTKSFNRGEC	–

From US20180021429A1 (PHARMA FOODS INTERNATIONAL, published 2018)
